According to the supplement of paper PMC10126150:
± gives the standard deviation of the averaged measurements.

tested on: ATP; test: switch fluorescence ratio, 500 uM ATP over buffer (Cy3 cluster intensity, sum of 5 cycles each) (fold (ratio)); higher = stronger signal-on switching upon ATP binding; sequences stand for … in TCGTCGGCAGCGTCAGATGTGTATAAGAGACAGTTTTTTTTTTTTTTTTTTTTTTTTT…TC; conditions: aptamer strand: ATP DNA aptamer (quencher-CACCTGGGGGAGTATTGCGGAGGAAGG + anchor), 100 nM annealed; ATP concentration: 500 uM
In short: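 Clusters with intensities outside 100-1000 RFU were excluded. The remaining Cy3-labelled switching-strand clusters on a modified Illumina MiSeq flow-cell had been annealed to 100 nM quencher-labelled ATP aptamer and imaged in selection buffer, then after 15 min with 500 uM ATP at 22 °C, for five cycles separated by NaOH stripping and re-annealing. The fluorescence ratio, averaged per switch-domain sequence, is each cluster's summed target-cycle Cy3 intensity over its summed buffer-cycle Cy3 intensity.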
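Also: ATP exposure 15 min at 22 °C before imaging.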

Sequence | switch fluorescence ratio
TGACCGAATT | 1.03 ± 0.054
TGACCGAGCG | 0.9603 ± 0.0065
TGACCGATCA | 1 ± 0.021
TGACCGGCTT | 1.05 ± 0.013
TGACGAACTC | 1.32 ± 0.045
TGACGAGCGG | 1.04 ± 0.061
TGACGCAGGA | 2.53 ± 1.8
TGACGCCTGA | 1.02 ± 0.022
TGACGGATGG | 1.03 ± 0.051
TGACGGTGGC | 1.02 ± 0.017
TGACTAATAA | 1.02 ± 0.013
TGACTAGGGA | 0.992 ± 0.021
TGACTCGAGT | 1.01 ± 0.012
TGACTGCGGG | 1.01 ± 0.015
TGACTGGCTT | 1.014 ± 0.01
TGACTTATGT | 1.014 ± 0.0037
TGACTTTTGT | 0.98 ± 0.0015
TGAGAAGACT | 1.03 ± 0.033
TGAGACGAAA | 1.07 ± 0.052
TGAGAGGGAC | 1.05 ± 0.013
TGAGAGGGGG | 1 ± 0.083
TGAGAGGTGG | 1 ± 0.036
TGAGAGTTCA | 1.006 ± 0.0032
TGAGATCACT | 1 ± 0.013
TGAGATCTGG | 0.982 ± 0.035

Sequence | switch fluorescence ratio
TGAGATTATT | 1.01 ± 0.038
TGAGATTCAG | 0.985 ± 0.02
TGAGATTGTG | 1.02 ± 0.037
TGAGATTGTT | 1.01 ± 0.028
TGAGCAAGGT | 1.203 ± 0.0039
TGAGCCCCGG | 1.03 ± 0.028
TGAGCCCGCT | 1 ± 0.016
TGAGCCCGGG | 0.97 ± 0.013
TGAGCGACTT | 1.005 ± 0.0095
TGAGCGGTAG | 1.028 ± 0.004
TGAGCGTGAG | 1.01 ± 0.015
TGAGCTGATG | 0.986 ± 0.032
TGAGGAAGGT | 1.016 ± 0.009
TGAGGAATTT | 1 ± 0.029
TGAGGACAGG | 1.06 ± 0.054
TGAGGAGAAT | 0.996 ± 0.028
TGAGGAGGGG | 0.989 ± 0.048
TGAGGATCCA | 0.985 ± 0.013
TGAGGCAGCT | 1.06 ± 0.11
TGAGGCAGGA | 1.04 ± 0.042
TGAGGGAAGA | 1.05 ± 0.051
TGAGGGACGC | 0.996 ± 0.021
TGAGGGATTC | 1 ± 0.047
TGAGGGCAGG | 1.023 ± 0.007
TGAGGGCGGC | 0.962 ± 0.12

Sequence | switch fluorescence ratio
TGAGGGCTAG | 1 ± 0.015
TGAGGGCTTT | 1.013 ± 0.0023
TGAGGGGATT | 1 ± 0.022
TGAGGGGCTA | 1.01 ± 0.049
TGAGGGGGAA | 1.03 ± 0.033
TGAGGGGGGC | 1.01 ± 0.044
TGAGGGGGTA | 0.995 ± 0.033
TGAGGGGTGC | 1.04 ± 0.029
TGAGGGTGGG | 1.01 ± 0.058
TGAGGGTTTG | 1.02 ± 0.044
TGAGGTCCCA | 1.01 ± 0.014
TGAGGTGCGA | 1.01 ± 0.023
TGAGGTTAGG | 1 ± 0.012
TGAGGTTTGG | 1.02 ± 0.028
TGAGTAAGGG | 0.991 ± 0.029
TGAGTAAGTA | 0.995 ± 0.048
TGAGTAGAGG | 1 ± 0.02
TGAGTAGCTC | 0.9715 ± 0.0037
TGAGTAGGGC | 0.948 ± 0.041
TGAGTAGGGT | 0.992 ± 0.011
TGAGTATTTG | 0.98 ± 0.025
TGAGTCAATT | 0.99 ± 0.032
TGAGTCTCTG | 0.998 ± 0.012
TGAGTCTGCG | 1.02 ± 0.12
TGAGTCTTCG | 1.03 ± 0.017

Sequence | switch fluorescence ratio
TGAGTGACTT | 0.974 ± 0.012
TGAGTGGGG | 0.975 ± 0.05
TGAGTGGGGG | 0.982 ± 0.014
TGAGTGTTAC | 1 ± 0.028
TGAGTTGTGT | 1.03 ± 0.075
TGATAAAACG | 0.992 ± 0.041
TGATAAACGG | 1 ± 0.019
TGATAAGTAC | 1.38 ± 0.065
TGATAATAGT | 0.989 ± 0.021
TGATAATTAC | 1.19 ± 0.27
TGATAATTTT | 1 ± 0.039
TGATACACGT | 1 ± 0.013
TGATACCGTG | 1.01 ± 0.017
TGATACGGAG | 0.983 ± 0.06
TGATACTCTG | 1.03 ± 0.029
TGATAGATGT | 0.983 ± 0.026
TGATAGGGTT | 0.985 ± 0.014
TGATATTT | 0.991 ± 0.022
TGATATTTGC | 0.969 ± 0.033
TGATCCTATG | 0.992 ± 0.016
TGATCGGCTA | 1.01 ± 0.049
TGATCGTCTG | 1.031 ± 0.0017
TGATGAAGAT | 0.9817 ± 0.0071
TGATGAATGA | 1.001 ± 0.0021
TGATGCAAGT | 1.09 ± 0.032
